In PMC2854098 (Molecular Biology of the Cell, 2010):

B1: recombinant h3/acidic CaP-CBD (natural protein, rat, UniProt P37397 1-330, looked up)
chain: MTHFNKGPSYGLSAEVKNKIASKYDQQAEEDLRNWIEEVTGMGIGTNFQLGLKDGIILCELINKLQPGSVKKVNESSLNWPQLENIGNFIKAIQAYGMKPHDIFEANDLFENGNMTQVQTTLVALAGLAKTKGFHTTIDIGVKYAEKQTRRFDEGKLKAGQSVIGLQMGTNKCASQAGMTAYGTRRHLYDPKMQTDKPFDQTTISLQMGTNKGASQAGMSAPGTRRDIYDQKLTLQPVDNSTISLQMGTNKVASQKGMSVYGLGRQVYDPKYCAAPTEPVIHNGSQGTGTNGSEISDSDYQAEYPDEYHGEYPDEYPREYQYGDDQGIDY
B2: recombinant h1CaP-CBD (natural protein, ferret, UniProt Q9GK38 1-297, looked up)
chain: MSSAHFNRGPAYGLSAEVKNKLAQKYDHQREQELREWIEGVTGRRIGSNFMDGLKDGIILCEFINKLQPGSVKKVNESTQNWHQLENIGNFIKAITKYGVKPHDIFEANDLFENTNHTQVQSTLLALASMAKTKGNKVNVGVKYAEKQERKFEPEKLREGRNIIGLQMGTNKFASQQGMTAYGTRRHLYDPKLGTDQPLDQATISLQMGTNKGASQAGMTAPGTKRQIFEPGLGMEHCDTLNVSLQMGSNKGASQRGMTVYGLPRQVYDPKYCLTPEYPELGEPTHNHHAHNYYNSA

Biological target: recombinant, active murine ERK2 protein (murine, UniProt P63085 1-358)
Experiment: pull-down

| Binder | binding result |
| --- | --- |
| B1 | binds |
| B2 | binds |
